Results on 7 molecules are retold here after patent publication US20210147519A1 (Regeneron, published 2021).

For experiment [1], the target named is T1, Recombinant bacterial IsdB expressed with a hexahistidine tag (IsdB-6xHis; REGN2655) (Staphylococcus aureus, UniProt A6QG30 42-613). The experiment is described as follows: SPR Biacore, captured Ab, IsdB-6xHis analyte, 37C. In general terms: SPR reads the build-up and loss of mass on a sensor chip optically.
The target of experiment [2] is T1, Recombinant bacterial IsdB expressed …. The experiment is described as follows: SPR Biacore, captured Ab, IsdB-6xHis analyte, 25C.
In experiment [3] the target is T2, native human complement component C1q protein purified from human serum (Quidel) (human, UniProt P02745 23-245; P02746 28-253; P02747 29-245).
T2 construct: the protein assayed was bought native serum C1q (Quidel); no signal peptide limits are stated; also called hC1q; human C1q
T2 sequence (P02745 23-245 limits assumed, chain 1 of 3): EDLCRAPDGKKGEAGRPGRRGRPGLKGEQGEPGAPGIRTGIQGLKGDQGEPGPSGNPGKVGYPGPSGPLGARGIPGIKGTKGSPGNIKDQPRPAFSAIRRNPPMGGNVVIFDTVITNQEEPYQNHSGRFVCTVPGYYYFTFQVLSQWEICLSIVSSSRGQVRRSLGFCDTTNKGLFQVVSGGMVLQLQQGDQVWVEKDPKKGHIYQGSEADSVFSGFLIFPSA
T2 sequence (P02746 28-253 limits assumed, chain 2 of 3): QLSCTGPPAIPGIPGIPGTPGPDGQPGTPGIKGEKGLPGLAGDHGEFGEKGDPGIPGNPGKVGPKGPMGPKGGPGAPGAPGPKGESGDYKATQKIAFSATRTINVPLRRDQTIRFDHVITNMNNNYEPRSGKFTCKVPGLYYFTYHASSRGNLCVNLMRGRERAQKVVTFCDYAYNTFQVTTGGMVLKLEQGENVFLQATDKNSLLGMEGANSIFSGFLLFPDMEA
T2 sequence (P02747 29-245 limits assumed, chain 3 of 3): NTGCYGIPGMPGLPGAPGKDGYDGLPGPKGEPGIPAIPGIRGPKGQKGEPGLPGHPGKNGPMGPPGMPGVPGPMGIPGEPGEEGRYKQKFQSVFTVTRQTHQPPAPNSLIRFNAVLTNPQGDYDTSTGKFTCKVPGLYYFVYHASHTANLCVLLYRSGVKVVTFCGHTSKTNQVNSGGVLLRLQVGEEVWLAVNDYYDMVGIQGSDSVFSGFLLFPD
The experiment is described as follows: SPR Biacore, captured Ab, hC1q analyte, 37C.

In experiment [4] the target is T2, native human complement component C1q …. In words: cell-based or functional assay.
For experiment [5] the target is unchanged. The experiment is described as follows: SPR Biacore, captured Ab, hC1q analyte, 25C.
Experiment [6] shares this target. In words: competition ELISA, 6 nM biot-hC1q, competitor plate-coated hIgG2-k.
The target of experiment [7] is T3, IsdB expressed on the surface of S. aureus Wood 46 (Staphylococcus aureus).
T3 construct: whole, on cells
T3 sequence (Q2FZF0 41-613): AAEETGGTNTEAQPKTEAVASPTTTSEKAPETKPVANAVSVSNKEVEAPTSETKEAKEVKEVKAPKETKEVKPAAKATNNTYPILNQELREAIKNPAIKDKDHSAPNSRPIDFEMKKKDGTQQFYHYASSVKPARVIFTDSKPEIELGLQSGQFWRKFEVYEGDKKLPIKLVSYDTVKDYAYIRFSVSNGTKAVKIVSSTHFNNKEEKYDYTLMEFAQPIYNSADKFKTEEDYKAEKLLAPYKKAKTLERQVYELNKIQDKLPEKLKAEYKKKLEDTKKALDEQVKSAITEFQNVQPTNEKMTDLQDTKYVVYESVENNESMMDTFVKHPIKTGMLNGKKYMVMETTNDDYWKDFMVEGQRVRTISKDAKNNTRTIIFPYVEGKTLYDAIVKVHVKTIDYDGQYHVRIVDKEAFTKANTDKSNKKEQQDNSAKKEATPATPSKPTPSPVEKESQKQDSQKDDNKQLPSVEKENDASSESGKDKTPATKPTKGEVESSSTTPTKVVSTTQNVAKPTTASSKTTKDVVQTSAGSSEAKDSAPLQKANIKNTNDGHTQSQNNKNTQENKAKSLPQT
In words: ELISA on plate-coated S. aureus Wood 46. A general note: In an ELISA, binding on a coated surface is turned into a signal by an enzyme label.
Experimental: Briefly, S. aureus Wood 46 was grown in RPMI overnight, washed in PBS and adjusted to an OD₆₀₀ of 0.25. MaxiSorp 96 well microtiter plates were coated overnight with 100 μl of S. aureus culture per well. Plates were washed and blocked with 3% BSA. […] Anti-human HRP conjugated secondary antibody was added to washed plates. Luminescence reagents (SuperSignal Pico) were then added to the wells and signal was detected in a plate reader (Victor X3 plate reader, Perkin Elmer) immediately. Luminescence values were analyzed by a four-parameter logistic equation over a 7-point response curve (GraphPad Prism) to determine the binding EC₅₀, of the antibodies.

The target of experiment [8] is T2, native human complement component C1q …. The experiment is described as follows: cell-based or functional assay. This is another data set of the same source.
Experiment [9] has the same target. In words: competition ELISA, 30 pM biot-hC1q, competitor plate-coated hIgG3-k.
Experiment [10] has the same target. The experiment is described as follows: competition ELISA, 30 pM biot-hC1q, competitor plate-coated hIgG1-k.
Experiment [11] shares this target. In words: competition ELISA, 6 nM biot-hC1q, competitor plate-coated hIgM.

T1 sequence (A6QG30 42-613, tags left off): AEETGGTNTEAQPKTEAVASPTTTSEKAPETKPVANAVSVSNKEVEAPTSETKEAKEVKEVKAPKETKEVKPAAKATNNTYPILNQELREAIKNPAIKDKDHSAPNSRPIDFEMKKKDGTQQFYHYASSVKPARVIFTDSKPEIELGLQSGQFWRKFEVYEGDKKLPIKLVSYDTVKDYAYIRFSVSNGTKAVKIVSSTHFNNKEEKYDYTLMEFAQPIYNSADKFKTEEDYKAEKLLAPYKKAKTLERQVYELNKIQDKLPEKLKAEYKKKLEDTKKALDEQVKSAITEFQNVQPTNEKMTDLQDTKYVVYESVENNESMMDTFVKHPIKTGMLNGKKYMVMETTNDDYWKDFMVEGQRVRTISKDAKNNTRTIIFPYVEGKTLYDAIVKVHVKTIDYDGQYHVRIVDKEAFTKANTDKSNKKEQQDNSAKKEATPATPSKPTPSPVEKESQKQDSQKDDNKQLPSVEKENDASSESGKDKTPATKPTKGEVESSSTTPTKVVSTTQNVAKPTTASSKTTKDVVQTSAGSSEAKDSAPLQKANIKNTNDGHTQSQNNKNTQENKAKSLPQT

B1: H1H20639D (bispecific antibody, V domains shown)
VH 1: QLQLQESGPGLVKPSETLSLTCTVSGGSISSSSYYWVWIRQPPGKGLEWIGNIYFSGSTYYNPSLKSRVTITVDTSKNQFSLKMTSVTAADTAVYYCARPFYGSRGDYYYGMDVWGQGTTVTVSS
VH 2: QVQLVESGGGVVQPGRSLRLSCAASGFTFSSYGMHWVRQAPGKGLEWVTNIWYDGNNKYYTDSVKGRFTISRDNSKNTLYLQMNSLTAEDTAVYYCARDGDYYVMDVWGQGTTVTVSS
VL: not shown
notes: also called anti-IsdB x anti-C1q bispecific antibody
A word on the Kd: it is a measure of binding affinity in units of concentration. One may read the koff as the first-order rate constant of dissociation. A word on the kon: it is the rate constant with which the complex forms. As usually defined, the t½ is the time needed for the level to fall by half in the phase considered. The term IC50 denotes the concentration at which inhibition is half-maximal. Read a high IC50 as lower potency. For orientation: EC50 means the concentration at which the effect is half-maximal. The low end stands for greater potency, the high end for weaker potency. Regarding B1, in [1], the Kd was 18.5 nM, the koff is 0.00148 s⁻¹, the kon was 80200 M⁻¹ s⁻¹ and the t1/2 came out at 7.81 min. Further, in experiment [2], the Kd was determined as 11.3 nM, the koff was 0.000562 s⁻¹, the kon came to 49800 M⁻¹ s⁻¹ and the t½ came out at 20.5 min. In [3], this molecule gave a Kd of 0.664 nM, a koff of 0.00859 s⁻¹, a kon of 1.29e+07 M⁻¹ s⁻¹ and a t1/2 of 1.34 min. Besides, in experiment [4], the “inhibition of CDC of Daudi cells, IC50 [M]” value (“inhibition of CDC … [M]” below) was > 1e-07 M and the “inhibition of CDC of Daudi cells, Max % Inhibition” value (“inhibition … Max % Inhibition” for short) came to 70%. For the same molecule, in experiment [5], binding was put at a Kd of 0.655 nM, the koff worked out at 0.00612 s⁻¹, the kon was 9.35e+06 M⁻¹ s⁻¹ and the t½ was 1.89 min. In experiment [6], the “% Blockade with 600 nM bispecific Ab” value came to 82% and the IC50 is 70 nM. This molecule also showed an EC50 in [7] of 13.3 nM. For the same molecule, in [8], the “C1q deposition on S. aureus Cowan I EC50” value turned out to be 2.06 nM. For the same molecule, the “% Blockade with 30 nM bispecific Ab” value in [9] came out at 33%. For the same molecule, in experiment [10], the “% Blockade with 30 nM bispecific Ab” value stood at 64%. Besides, in experiment [11], the “% Blockade with 600 nM bispecific Ab” value amounted to 86% and the IC50 turned out to be 42 nM.

B2: H1H20646D (bispecific antibody, V domains shown)
VH 1: QLQLQESGPGLVKPSETLSLTCTVSGGSISSSSYYWVWIRQPPGKGLEWIGNIYFSGSTYYNPSLKSRVTITVDTSKNQFSLKMTSVTAADTAVYYCARPFYGSRGDYYYGMDVWGQGTTVTVSS
VH 2: EVQLVQSGAEVRKPGESLKISCKGSGFSFTSYWIGWVRQMPGKGLEWMGIIFPADSDTRYSPSFQGQVTISADKSINTAYLQWRSLKVSDTAMYYCTKLQYWYFDLWGRGTLVTVSS
VL: not shown
notes: as for B1
In the case of B2, in [1], the Kd turned out to be 18.5 nM, the koff came out at 0.0015 s⁻¹, the kon is 80700 M⁻¹ s⁻¹ and the t1/2 turned out to be 7.72 min. Further, in experiment [2], the Kd was 9.74 nM, the off-rate (koff) turned out to be 0.000433 s⁻¹, the kon stood at 44500 M⁻¹ s⁻¹ and the t½ is 26.7 min. Moreover, in [7], the EC50 was determined as 12.9 nM.

B3: H1H20644D (bispecific antibody, V domains shown)
VH 1: QLQLQESGPGLVKPSETLSLTCTVSGGSISSSSYYWVWIRQPPGKGLEWIGNIYFSGSTYYNPSLKSRVTITVDTSKNQFSLKMTSVTAADTAVYYCARPFYGSRGDYYYGMDVWGQGTTVTVSS
VH 2: QVQLVESGGGVVQPGRSLRLSCATSGFTFSSYGMHWVRQAPGKGLEWVALIWYDRNNEYYADSVKGRFTISRDNSKNTLYLQMNSLRAEDTAVYYCARGEWEMDYWGQGTLVTVSS
VL: not shown
notes: as for B1
Turning to B3, in [1], the Kd stood at 18.2 nM, the koff was found to be 0.0015 s⁻¹, the kon is 82500 M⁻¹ s⁻¹ and the t1/2 is 7.7 min. Besides, in experiment [2], the Kd came out at 11 nM, the koff was determined as 0.000554 s⁻¹, the kon stood at 50300 M⁻¹ s⁻¹ and the t½ was found to be 20.8 min. Further, in experiment [3], binding was characterised by a dissociation constant (Kd) of 0.924 nM, the koff stood at 0.0276 s⁻¹, the kon worked out at 2.98e+07 M⁻¹ s⁻¹ and the t1/2 worked out at 0.42 min. Besides, in experiment [4], the “inhibition of CDC … [M]” value was > 1e-07 M and the “inhibition … Max % Inhibition” value was found to be 88%. In addition, in experiment [5], the Kd was determined as 0.232 nM, the koff turned out to be 0.00624 s⁻¹, the kon is 2.69e+07 M⁻¹ s⁻¹ and the t½ stood at 1.85 min. In [6], the “% Blockade with 600 nM bispecific Ab” value was 81% and the IC50 was 63 nM. In [7], this molecule had an EC50 of 12.6 nM. Further, the “C1q deposition on S. aureus Cowan I EC50” value in experiment [8] stood at 1.12 nM. Further, the “% Blockade with 30 nM bispecific Ab” value in experiment [9] worked out at 36%. In experiment [10], the “% Blockade with 30 nM bispecific Ab” value amounted to 66% and the IC50 stood at 24 nM. Besides, in experiment [11], the “% Blockade with 600 nM bispecific Ab” value stood at 75% and the IC50 is 43 nM.

B4: H1H20643D (bispecific antibody, V domains shown)
VH 1: QLQLQESGPGLVKPSETLSLTCTVSGGSISSSSYYWVWIRQPPGKGLEWIGNIYFSGSTYYNPSLKSRVTITVDTSKNQFSLKMTSVTAADTAVYYCARPFYGSRGDYYYGMDVWGQGTTVTVSS
VH 2: EVQLVQSGAEVKKPGDSLKISCKGSGYSFTTYWIGWVRQMPGKGLEWMGIIFPGDSDTRYSPSFQGQVTISADKSINTAYLQWSSLKASDTAIYYCARHNRWVADYWGQGTLVTVSS
VL: not shown
notes: as for B1
For the molecule B4, in experiment [1], the Kd was found to be 18.5 nM, the koff came out at 0.00148 s⁻¹, the kon came out at 79900 M⁻¹ s⁻¹ and the t1/2 turned out to be 7.81 min. Also, in experiment [2], the Kd worked out at 9.42 nM, the koff stood at 0.000555 s⁻¹, the kon came to 58900 M⁻¹ s⁻¹ and the t½ turned out to be 20.8 min. Besides, the EC50 in experiment [7] came to 10.1 nM.

B5: H1H20640D (bispecific antibody, V domains shown)
VH 1: QLQLQESGPGLVKPSETLSLTCTVSGGSISSSSYYWVWIRQPPGKGLEWIGNIYFSGSTYYNPSLKSRVTITVDTSKNQFSLKMTSVTAADTAVYYCARPFYGSRGDYYYGMDVWGQGTTVTVSS
VH 2: EVQLVQSGPEVKKPGESLKISCKGSGYNFLGYWIGWVRQMPEKGLEWMAFIYPGDSDFRYSPSFQGQVTISVDRSVTTAYLHWSSLKASDTGIYFCVRQTGNGMDVWGQGTTVTVSS
VL: not shown
notes: as for B1
Turning to B5, in experiment [1], the Kd was 17.2 nM, the koff was determined as 0.00142 s⁻¹, the kon worked out at 82800 M⁻¹ s⁻¹ and the t1/2 was 8.13 min. For the same molecule, in experiment [2], the Kd was determined as 9.36 nM, the koff was 0.000553 s⁻¹, the kon is 59100 M⁻¹ s⁻¹ and the t½ was 20.9 min. In addition, the EC50 in experiment [7] came out at 18 nM.

B6: H1H20647D (bispecific antibody, V domains shown)
VH 1: QLQLQESGPGLVKPSETLSLTCTVSGGSISSSSYYWVWIRQPPGKGLEWIGNIYFSGSTYYNPSLKSRVTITVDTSKNQFSLKMTSVTAADTAVYYCARPFYGSRGDYYYGMDVWGQGTTVTVSS
VH 2: QVQLVESGGGVVQPGRSLRLSCAASGFTFSSYGMHWVRQAPGKGLEWVALIWYDGSNKYFADSVKGRFTISRDISKNTLYLQMNSLRAEDTAVYYCARDGDYYGMDVWGQGTTVTVSS
VL: not shown
notes: as for B1
Regarding B6, in experiment [1], the Kd is 21.5 nM, the koff is 0.00154 s⁻¹, the kon was 71500 M⁻¹ s⁻¹ and the t1/2 is 7.51 min. In [2], the Kd worked out at 12.3 nM, the koff was found to be 0.000565 s⁻¹, the kon turned out to be 46000 M⁻¹ s⁻¹ and the t½ was 20.4 min. In experiment [3], this molecule registered a Kd of 0.439 nM, a koff of 0.00576 s⁻¹, a kon of 1.31e+07 M⁻¹ s⁻¹ and a t1/2 of 2 min. Also, in experiment [4], the “inhibition of CDC … [M]” value was > 1e-07 M and the “inhibition … Max % Inhibition” value is 82%. In experiment [5], this molecule gave a Kd of 0.368 nM, a koff of 0.0034 s⁻¹, a kon of 9.25e+06 M⁻¹ s⁻¹ and a t½ of 3.39 min. In experiment [6], the “% Blockade with 600 nM bispecific Ab” value came out at 80% and the IC50 was 32 nM. Further, it took 7.3 nM to reach a half-maximal effect in experiment [7] (EC50). Further, the “C1q deposition on S. aureus Cowan I EC50” value in [8] came to 0.587 nM. Also, the “% Blockade with 30 nM bispecific Ab” value in experiment [9] was found to be 60%. Besides, in experiment [10], the “% Blockade with 30 nM bispecific Ab” value came out at 85% and the IC50 is 9 nM. Further, in experiment [11], the “% Blockade with 600 nM bispecific Ab” value is 91% and the IC50 is 25 nM.

B7: H1H20634D (bispecific antibody, V domains shown)
VH 1: EVQLVESGGGLVQPGRSLRLSCTTSGFTFDDYAMHWVRQVPGQGLEWVAGLSWNSDTIGYADSVKGRFTISRDNAKNSLYLQMKSLKAEDTALYYCTKDFYHSLNNWNYYYFDYWGQGTLVTVSS
VH 2: QVQLVESGGGVVQPGRSLRLSCVASGFTFSSYGFHWVRQAPGKGLEWVAVIWYDGSNEGYVDSVRGRFTISRDFSKNTLYLQMNSLRIEDTAVYYCARRGDYYIMDVWGQGTTVTVSS
VL: not shown
notes: as for B1
In the case of B7, in [1], the Kd was 3.81 nM, the koff is 0.000573 s⁻¹, the kon came to 150000 M⁻¹ s⁻¹ and the t1/2 came to 20.2 min. Further, in experiment [2], the Kd came to 2.65 nM, the koff came out at 0.000296 s⁻¹, the on-rate constant (kon) was 112000 M⁻¹ s⁻¹ and the t½ is 39 min. This molecule showed an EC50 in experiment [7] of 1.04 nM.
